The numbers were not newly measured in paper PMC3982939, which cites them from elsewhere.

Data set [1] has as its target uroguanylin (Homo sapiens) (UniProt Q16661).
Data set [2] has as its target guanylin (Homo sapiens) (UniProt Q02747).

With “Guanylyl cyclase C ECD (from UniProt P25092)”, the Kd – broadly, the equilibrium constant for the complex coming apart – in data set [1] was 1 nM; in data set [2], 10 nM.
